Laboratory results reported in US20050013820A1 (REGENTS OF THE UNIVERSITY OF MICHIGAN, published 2005).

Legend:
[1] = target: T1, cell surface calreticulin on human fibroblastoid M1 cells (human, UniProt P27797 18-417); assay: cell-based or functional assay
T1 sequence (looked up): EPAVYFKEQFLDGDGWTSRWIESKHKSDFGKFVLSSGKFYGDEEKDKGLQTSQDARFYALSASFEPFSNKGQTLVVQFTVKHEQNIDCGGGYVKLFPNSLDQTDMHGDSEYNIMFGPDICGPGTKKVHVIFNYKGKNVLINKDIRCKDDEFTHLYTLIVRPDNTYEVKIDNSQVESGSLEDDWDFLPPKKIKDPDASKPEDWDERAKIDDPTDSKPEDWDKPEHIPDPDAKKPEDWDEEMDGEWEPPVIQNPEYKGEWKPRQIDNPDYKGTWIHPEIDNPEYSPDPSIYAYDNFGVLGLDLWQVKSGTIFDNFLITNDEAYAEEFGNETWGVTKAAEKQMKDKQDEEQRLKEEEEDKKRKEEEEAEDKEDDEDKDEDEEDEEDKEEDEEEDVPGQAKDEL

[2] = target: T2, recombinant human calreticulin (human, UniProt P27797 18-417); assay: SPR (Biacore 2000), calreticulin immobilized on CM5
T2 construct: Expressed in E. coli as a GST fusion; also called Crt; purified recombinant calreticulin
T2 sequence: T1 sequence (looked up)
Method: Prior to use, biosensor chips CM5 were docked into a Biacore® 2000 and preconditioned in water at 100 μl/min by applying two consecutive 20-μl pulses of 50 mM NaOH, then 10 mM HCl, and finally 0.1% SDS. […] Immobilizations were conducted at 25° C. in HBS-EP (10 mM HEPES, pH7.4, 150 mM NaCl, 1 mM EDTA, 0.005% Surfactant P-20), with a flow of 10 μl/min. The CM5 surface was activated by 7 min injection of 200 mM EDC/50 mM NHS to prepare a high-capacity surface, with manual injection of 100 μg/ml calreticulin until 5500 RU level was approached. Then 100 μl of 1M ethanolamine was used to block remaining activated group.
Calreticulin and peptide binding were performed at 25° C. in binding buffer (10 mM HEPES, pH8.0, 50 mM KCl, 0.5 mM CaCl₂, 1% Triton-X100), with a flow rate of 10 μl/min. […] Binding assays were repeated at least 3 times. Kinetic analysis was performed using Kinetic separate kₐ/kd fitting in BIA evaluation 3.0 software.

B1: peptide 65-78*0401 (peptide)
peptide: KDLLEQKRAAVDTY
inhibition of cAMP-mediated (2CA-induced) DNA repair induction in cells; IC50 [1]: ~250 nM

B2: pentapeptide DKCLA (peptide)
peptide: DKCLA
inhibition of NO induction by Sepharose bead-bound 65-79*0401 in M1 cells; IC50 [1]: ~35 µM

B3: pentapeptide QKRAE (peptide)
peptide: QKRAE
notes: Synthetic pentapeptide
binding result [2]: no binding
